Sequences and labels used below:
B1: 1B1 (scFv)
scFv: QVQLVQSGAVVKKPGASVKVSCKASDYTFTNYWLGWVRQAPGQGLEWMGHIYPGGGYTNYNEKFKGRVTMTSDTSTSTVYMELSSLSSEDTAVYYCARVRSGNDALDFWGQGTLVTVSSGGGGSGGGGSGGGGSEIVLTQSPATLSLSPGERATLSCHASESVDEYGISFMNWFQQKPGQAPRLLIYSASNQGSGIPARFSGSGSGTDFTLTISSLEPEDFAVYFCQQSKEVPWTFGGGTKLEIK
notes: As m119: scFv on phage
B2: Original sequence (1H9) (scFv)
scFv: B1 scFv with V10E, S72R, S87R, H158R
notes: Template scFv of the phage library, on phage; also called ScFv VH-Linker-VL of VH1+VL3
B3: 1F7 (scFv)
scFv: B1 scFv with V10E, G35A, S72R, S87R, L155V, H158R, R183T, Q192L
notes: As m119: scFv on phage
B4: 2F2 (scFv)
scFv: B1 scFv with V10E, S72R, S87R, R100S, F108L, G122E, H158R
notes: As m119: scFv on phage
B5: 2G9 (scFv)
scFv: B1 scFv with V10E, S72R, S87R, R100S, H158R, S188G, V232L
notes: As m119: scFv on phage
B6: 1F12 (scFv)
scFv: B1 scFv with V10E, S72R, S87R, R100S, H158R, G193A, V232L
notes: As m119: scFv on phage
B7: 1G9 (scFv)
scFv: B1 scFv with V10E, K13Q, S72R, S87R, G131D, H158R, Q192R, S214N
notes: As m119: scFv on phage
B8: 2E2 (scFv)
scFv: B1 scFv with V10E, S72R, S87R, R100S, H158R, V232L
notes: As m119: scFv on phage
B9: 1F10 (scFv)
scFv: B1 scFv with V10E, S72R, S87R, F108I, H158R, S194D, E231D
notes: As m119: scFv on phage
B10: 1E12 (scFv)
scFv: B1 scFv with V10E, S72R, S87R, R100S, F108L, H158R, A189G, Q192E, Q227N
notes: As m119: scFv on phage
B11: 2F1 (scFv)
scFv: B1 scFv with V10E, S72R, S87R, R100S, H158R, V232L
notes: As m119; the printed mutations are the same as those of 2E2
B12: 1G11 (scFv)
scFv: B1 scFv with V10E, S72R, S87R, R100S, H158R, G193A, V232L
notes: As m119; the printed mutations are the same as those of 1F12
B13: 1F9 (scFv)
scFv: B1 scFv with V10E, T30H, S72R, S87R, R100S, H158R, V232L
notes: As m119: scFv on phage
B14: 2E7 (scFv)
scFv: B1 scFv with V10E, G54S, S72R, S87R, R100S, H158R, V232L
notes: As m119: scFv on phage
B15: 3-9E1-3A2 (antibody, human IgG1, kappa, V domains shown)
VH: QIQLVQSGPELKKPGETVNISCRASGDTFTNYAVNWVKQAPGKGLKWMGWIDTYTGDPTYADDLKGRFAFSLETSATTAYLQINNLKNEDTATYFCAGDTWFAYWGQGTLVTVSA
VL: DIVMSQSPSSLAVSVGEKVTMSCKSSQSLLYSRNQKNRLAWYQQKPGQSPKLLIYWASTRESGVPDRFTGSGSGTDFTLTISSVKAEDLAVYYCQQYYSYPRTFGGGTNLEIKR
B16: 5-20E11-5F2 (hybridoma subclone) (antibody, human IgG1, kappa, V domains shown)
VH: QVQLQQSGAELVRPGTSAKISCKASDYTFTNYWLGWLKQRPGHGLEWIGHIYPGGGYTNYNEKFKGKATLTADTSSSTAYMQLSSLTSEDSAVYFCARVRSGNDALDFWGQGTSVTVSS
VL: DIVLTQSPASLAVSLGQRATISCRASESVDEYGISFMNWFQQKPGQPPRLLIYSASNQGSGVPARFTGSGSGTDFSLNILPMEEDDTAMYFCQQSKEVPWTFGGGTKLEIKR
B17: 3-6A4 (hybridoma) (antibody, human IgG1, kappa, V domains shown)
VH: QIQLVQSGPELKKPGETVKISCKASGYTFTTNGINWVKQAAGKGLKWMGWINTNTGEPTNAEELKGRFAFSLETSASTAYLQINNLKNEDAAIYFCAREGAFGLDYWGQGTSVTVSS
VL: SIVMTQSPKFLLVSAGDRVIITCKASQSVSNDVVWYQQKPGQSPKLLIYYGSHRNTGVPTRFTGSGYGTDFTFTISTVQAEDLAVYFCQQDFFSPWTFGGGTKLEIKR
notes: only the variable parts apply for certain
B18: 3-5B2-2G4 (antibody, human IgG1, kappa, V domains shown)
VH: QIQLVQSGPELKKPGETVKISCKASGYTFTNYGMNWVKQAPGKGLKWMGWINTNTGEPTYAEEIKGRFAFSLETSASTAYLQINNLKNEDTATYFCSREGIYGMDSWGQGTSVTVSS
VL: B17 VL with S7T, I20T, Q37R, G51A, H53N, N55Y, T56I, T60D, F92Y, F93Y
B19: 5-20E11-1A2 (antibody, V domains shown)
VH: QVQLQQPGAELVRPGTSVKMSCKASGYTFTSYWMHWVKQRPGQGLEWIGDIYPGSDSTNYHEKFKSKATLTVDTSSSTAYMQLSSLTSEDSAVYYCALDSSGYGFAYWGQGTLVTVSA
VL: NIVMTQTPKFLLVSAGDRVTITRKASQSVSNDVVWYQQKPGQSPKLLMYYASYRYTGVPDRFTGSGYGTDFTFTISNVQAEDLAVYFCQQDYSSPFTFGSGTKLEIK
B20: 3-15D5-6A1 (antibody, human IgG1, kappa, V domains shown)
VH: EVKLLESGGGLVQPGGSLKLSCAASGFDFRRYWMSWVRQAPGKGLEWIGQINPDSSMINYTPSLKDKFIISRDNAKNTLYLQMSEVRSEDTALYYCATYGHHATDSWGQGTSVTVSS
VL: DIVLTQSPASLAVSLGQRATISCRASESVDSYGNSFMHWYQQKPGQPPKLLIYRASNLESGIPARFSGSGSRTDFTLTINPVEADDVATYYCQQSNEDPFTFGSGTKLEIKR
B21: 3-7C9-1A6 (antibody, human IgG1, kappa, V domains shown)
VH: QVQLKQSGPGLVQPSQSLSITCTVSGFSLTNYGVHWVRQSPGKGLEWLGAIWRGGSTDYNAAFMSRLSITKDNSKSQVFFKMNSLQPDDTAIYYCAKNLYGPAAMDYWGQGTSVTVSS
VL: DIQMNQSPSSLSASLGDTITITCHANQNIYVWLSWYQQKPGNIPKLLIYEASNLHTGVPSRFSGSGSGTGFTLTISSLQPEDIATYYCQQGQSYPYTFGGGTKLEIKR
B22: 3-15D5-3A6 (antibody, human IgG1, kappa, V domains shown)
VH: QVTLKESGPGILQPSQTLSLTCSFSGFSLSSSGMSVGWIRQPSGKGLEWLAHIWWSDDKSYNPALKSRLTISKDTSNNQVFLKIASVVTADTATYYCAREGSLGYGLDYWGQGTTLTVSS
VL: DVLMTQTPLSLPVSLGDQASISCRSSQSIVHTDGNTYLEWYLQKPGQSPKLLIYKVSNRFSGVPDRFSGSGSGTDFTLKISRVEAEDLGVYYCFQGSHVPWTFGGGTKLEIKR

Substitutions are numbered along the chain they refer to.

One assay addresses T1, IL-11 (UniProt P20809 22-199, limits assumed).
T1 construct: also called IL-11 protein; IL-11 antigen
T1 sequence (looked up): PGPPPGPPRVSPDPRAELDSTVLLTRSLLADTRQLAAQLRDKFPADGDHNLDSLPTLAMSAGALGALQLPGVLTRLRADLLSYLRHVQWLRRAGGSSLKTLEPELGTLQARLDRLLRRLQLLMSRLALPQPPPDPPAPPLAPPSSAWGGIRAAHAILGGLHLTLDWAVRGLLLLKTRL
Briefly: phage ELISA on IL-11. A general note: ELISA stands for enzyme-linked immunosorbent assay.
B1 yielded an ELISA of 1.46.
Same read-out and setting: the figure for B2 is 1.16; for B3 it is 2.38; for B4 it is 2.65.
With B5, the ELISA amounted to 2.09.
The same measure, in the same setting: then B6, with 2.59; and B7, with 2.81; and B8, with 2.58.
B9 yielded an ELISA of 2.6.
Molecule B10 showed an ELISA of 2.2.
For the molecule B11, the ELISA was determined as 2.1.
On to B12, for which the ELISA was 2.58.
For B13, the ELISA turned out to be 2.59.
Consider B14, for which the ELISA was determined as 2.19.

A further assay deals with T1, IL-11. Nature of the assay: ELISA on IL-11, monoclonal hybridoma antibody.
On to B15, for which the OD450 amounted to 1.54 OD450.
Still for that read-out and setting: then B16, with 1.6 OD450; and B17, with 1.58 OD450; and B18, with 1.65 OD450.
Still for that read-out and setting: the figure for B19 is 1.63 OD450.
The same measure, in the same setting: the figure for B20 is 1.51 OD450; for B21 it is 1.6 OD450.
As for B22, the OD450 amounted to 1.69 OD450.

The target in a further assay is T1, IL-11. Nature of the assay: flow cytometry of phage clone; cells not given. A general note: In flow cytometry, cells or beads pass a laser one at a time.
In the case of B1, the “Flow (Mean)” value worked out at 3500 mean fluorescence.
As to B2, the “Flow (Mean)” value is 450 mean fluorescence.
Still for that read-out and setting: the figure for B3 is 1860 mean fluorescence; for B4 it is 2000 mean fluorescence; for B5 it is 1910 mean fluorescence.
Same read-out and setting: then B6, with 4140 mean fluorescence.
In the case of B7, the “Flow (Mean)” value is 2240 mean fluorescence.
With B8, the “Flow (Mean)” value worked out at 2100 mean fluorescence.
Consider B9, for which the “Flow (Mean)” value was determined as 2640 mean fluorescence.
Same read-out and setting: then B10, with 6320 mean fluorescence; and B11, with 2390 mean fluorescence; and B12, with 2900 mean fluorescence.
Still for that read-out and setting: then B13, with 3820 mean fluorescence; and B14, with 1990 mean fluorescence.

In the next assay the target is T1, IL-11. Nature of the assay: flow, IL-11 + antibody on IL-11R cells; lower = more blocking.
Consider B15, for which the “FITC Mean” value was determined as 9070 mean fluorescence.
Still for that read-out and setting: the figure for B16 is 3110 mean fluorescence; for B17 it is 3040 mean fluorescence; for B18 it is 19800 mean fluorescence.
Still for that read-out and setting: then B19, with 3640 mean fluorescence; and B20, with 13600 mean fluorescence.
On the same count and under the same terms, then B21, with 3150 mean fluorescence.
As to B22, the “FITC Mean” value came to 10900 mean fluorescence.

For the origin of these results see patent US20250002574A1 (SUNSHINE LAKE PHARMA, published 2025).
